Data published in the supplement of paper PMC11246515.
± gives the standard deviation of the averaged measurements.

Test: total protein half-life in vivo (active degradation + dilution); higher = more stable protein
[1] = E. coli NCM3722 delta-clpP delta-lon delta-hslV, growth: N-lim chemostat, doubling time 6 h
[2] = E. coli NCM3722 delta-clpP, growth: N-lim chemostat, doubling time 6 h
[3] = E. coli NCM3722 delta-hslV, growth: N-lim chemostat, doubling time 6 h
[4] = E. coli NCM3722 delta-lon, growth: N-lim chemostat, doubling time 6 h
[5] = E. coli NCM3722 delta-smpB, growth: N-lim chemostat, doubling time 6 h
[6] = wild type E. coli NCM3722, growth: C-lim chemostat, doubling time 3 h
[7] = wild type E. coli NCM3722, growth: C-lim chemostat, doubling time 6 h
[8] = wild type E. coli NCM3722, growth: C-lim chemostat, doubling time 12 h
[9] = wild type E. coli NCM3722, growth: N-lim chemostat, doubling time 6 h
[10] = wild type E. coli NCM3722, growth: P-lim chemostat, doubling time 6 h
[11] = wild type E. coli NCM3722, growth: P-lim chemostat, doubling time 12 h
[12] = wild type E. coli NCM3722, growth: N-lim chemostat, doubling time 12 h

With “MSIVMQLQDVAESTRLGPLSGEVRAGEILHLVGPNGAGKSTLLARMAGMTSGKGSIQFAGQPLEAWSATKLALHRAYLSQQQTPPFATPVWHYLTLHQHDKTRTELLNDVAGALALDDKLGRSTNQLSGGEWQRVRLAAVVLQITPQANPAGQLLLLDEPMNSLDVAQQSALDKILSALCQQGLAIVMSSHDLNHTLRHAHRAWLLKGGKMLASGRREEVLTPPNLAQAYGMNFRRLDIEGHRMLISTI” the “total protein half-life in vivo” value [1] was 4.65 ± 0.84 h, the “total protein half-life in vivo” value [2] was 2.32 ± 0.27 h and the “total protein half-life in vivo” value [3] was 3.72 h. The “total protein half-life in vivo” value [4] was 2.59 h, the “total protein half-life in vivo” value [5] was 2.37 ± 0.03 h and the “total protein half-life in vivo” value [6] was 2.13 ± 0.1 h. The “total protein half-life in vivo” value [7] was 3.49 ± 0.41 h, the “total protein half-life in vivo” value [8] was 4.65 h and the “total protein half-life in vivo” value [9] was 3.11 ± 0.33 h. The “total protein half-life in vivo” value [10] was 4.37 h and the “total protein half-life in vivo” value [11] was 6.509 ± 0.027 h.

With “MSKAGASLATCYGPVSADVIAKAENIRLLILDVDGVLSDGLIYMGNNGEELKAFNVRDGYGIRCALTSDIEVAIITGRKAKLVEDRCATLGITHLYQGQSNKLIAFSDLLEKLAIAPENVAYVGDDLIDWPVMEKVGLSVAVADAHPLLIPRADYVTRIAGGRGAVREVCDLLLLAQGKLDEAKGQSI [P0ABZ4]” the “total protein half-life in vivo” value [1] was 6.03 ± 0.62 h, the “total protein half-life in vivo” value [2] was 5.24 ± 0.48 h and the “total protein half-life in vivo” value [3] was 4.75 h. For the same sequence, the “total protein half-life in vivo” value [4] was 4.98 ± 0.53 h, the “total protein half-life in vivo” value [5] was 4.36 ± 0.21 h and the “total protein half-life in vivo” value [7] was 4.33 ± 1.4 h. For the same sequence, the “total protein half-life in vivo” value [8] was 11.2 ± 2 h, the “total protein half-life in vivo” value [9] was 4.81 h and the “total protein half-life in vivo” value [12] was 7.52 ± 0.99 h. The “total protein half-life in vivo” value [10] was 6.58 h and the “total protein half-life in vivo” value [11] was 13.2 ± 0.32 h.

For “MSKCSADETPVCCCMDVGTIMDNSDCTASYSRVFANRAEAEQTLAALTEKARSVESEPCKITPTFTEESDGVRLDIDFTFACEAEMLIFQLGLR [P0AD33]”, the “total protein half-life in vivo” value [1] was 5.299 ± 0.023 h, the “total protein half-life in vivo” value [3] was 2.32 ± 0.13 h and the “total protein half-life in vivo” value [4] was 2.77 ± 0.89 h. For the same sequence, the “total protein half-life in vivo” value [5] was 2.37 ± 0.099 h, the “total protein half-life in vivo” value [6] was 2.3 ± 0.11 h and the “total protein half-life in vivo” value [7] was 4.14 ± 0.23 h. The “total protein half-life in vivo” value [8] was 8.27 ± 4.1 h, the “total protein half-life in vivo” value [9] was 2.09 ± 0.35 h and the “total protein half-life in vivo” value [12] was 3.61 ± 0.46 h. For the same sequence, the “total protein half-life in vivo” value [10] was 5.25 ± 0.11 h and the “total protein half-life in vivo” value [11] was 8.88 ± 0.45 h.

With “MSKGTTSQDAPFGTLLGYAPGGVAIYSSDYSSLDPQEYEDDAVFRSYIDDEYMGHKWQCVEFARRFLFLNYGVVFTDVGMAWEIFSLRFLREVVNDNILPLQAFPNGSPRAPVAGALLIWDKGGEFKDTGHVAIITQLHGNKVRIAEQNVIHSPLPQGQQWTRELEMVVENGCYTLKDTFDDTTILGWMIQTEDTEYSLPQPEIAGELLKISGARLENKGQFDGKWLDEKDPLQNAYVQANGQVINQDPYHYYTITESAEQELIKATNELHLMYLHATDKVLKDDNLLALFDIPKILWPRLRLSWQRRRHHMITGRMDFCMDERGLKVYEYNADSASCHTEAGLILERWAEQGYKGNGFNPAEGLINELAGAWKHSRARPFVHIMQDKDIEENYHAQFMEQALHQAGFETRILRGLDELGWDAAGQLIDGEGRLVNCVWKTWAWETAFDQIREVSDREFAAVPIRTGHPQNEVRLIDVLLRPEVLVFEPLWTVIPGNKAILPILWSLFPHHRYLLDTDFTVNDELVKTGYAVKPIAGRCGSNIDLVSHHEEVLDKTSGKFAEQKNIYQQLWCLPKVDGKYIQVCTFTVGGNYGGTCLRGDESLVIKKESDIEPLIVVKK [P0AES0]” the “total protein half-life in vivo” value [1] was 5 ± 0.066 h, the “total protein half-life in vivo” value [2] was 4.62 ± 0.17 h and the “total protein half-life in vivo” value [3] was 4.62 ± 0.18 h. For the same sequence, the “total protein half-life in vivo” value [4] was 6.12 ± 1.3 h, the “total protein half-life in vivo” value [5] was 4.58 ± 0.23 h and the “total protein half-life in vivo” value [6] was 3 ± 0.4 h. For the same sequence, the “total protein half-life in vivo” value [7] was 5.17 ± 0.38 h, the “total protein half-life in vivo” value [8] was 10.6 ± 0.36 h and the “total protein half-life in vivo” value [9] was 4.645 ± 0.024 h. The “total protein half-life in vivo” value [12] was 8.42 ± 0.4 h, the “total protein half-life in vivo” value [10] was 5.85 ± 0.5 h and the “total protein half-life in vivo” value [11] was 11.2 ± 0.72 h.

For “MSKIIATLYAVMDKRPLRALSFVMALLLAGCMFWDPSRFAAKTSELEIWHGLLLMWAVCAGVIHGVGFRPQKVLWQGIFCPLLADIVLIVGLIFFFF [P0AAV0]”, the “total protein half-life in vivo” value [4] was 5.39 h.

For “MSKIRVLSVDDSALMRQIMTEIINSHSDMEMVATAPDPLVARDLIKKFNPDVLTLDVEMPRMDGLDFLEKLMRLRPMPVVMVSSLTGKGSEVTLRALELGAIDFVTKPQLGIREGMLAYNEMIAEKVRTAAKASLAAHKPLSAPTTLKAGPLLSSEKLIAIGASTGGTEAIRHVLQPLPLSSPALLITQHMPPGFTRSFADRLNKLCQIGVKEAEDGERVLPGHAYIAPGDRHMELSRSGANYQIKIHDGPAVNRHRPSVDVLFHSVAKQAGRNAVGVILTGMGNDGAAGMLAMRQAGAWTLAQNEASCVVFGMPREAINMGGVCEVVDLSQVSQQMLAKISAGQAIRI”, the “total protein half-life in vivo” value [1] was 4.85 h, the “total protein half-life in vivo” value [6] was 2.09 ± 0.19 h and the “total protein half-life in vivo” value [7] was 3.21 ± 0.2 h. For the same sequence, the “total protein half-life in vivo” value [8] was 5.6 ± 0.28 h and the “total protein half-life in vivo” value [11] was 9.95 h.

In the case of “MSKISDLNYSQHITLADNFKQKSEVLNTWRVGMNDFARIAGGQDNRRNILSPGAFLEFLAKIFTLGYVDFSKRSNEAGRNMMAHIKSSSYSKDTNGNEKMKFYMNNPVGERADSPKVIIEISLSTITTMGTRQGHTAIIFPQPDGSTNRYEGKSFERKDESSLHLITNKVLACYQSEANKKIARLLNNNQELNNLQKLNNLQKLNNLLKLNNIQGLNNPQELNNPQNLNDSQELNNSQELNSPQELNDPQELNNSQDLNNSKVSCTVSVDSTITGLLKEPLNNALLAIRNEHLLLMPHVCDESISYLLGEKGILEEIDKLYALNDHGIDNDKVGNNEINDIKVNLSHILIDSLDDAKVNLTPVIDSILETFSKSPYINDVRILDWCFNKSMQYFDDTKKIKHACSVINHINLRSDQSKIAETLFFNLDKEPYKNSPELQGLIWNKLVVYVNEFNLSNREKTNLIQRLFDNVESIFNEVPVSILVNDIFMNDFFMKNPEMINWYFPQLLKSYEGEKIYFDNLKYDLNDNDKESNKEILKNQPDNVIKEKLNNEYKLRFRMMQTILQSRVNVLPYINEQRLNKLNPPENLRIAIEHFGWKNRPITA”, the “total protein half-life in vivo” value [1] is reported as 5.05 h, the “total protein half-life in vivo” value [2] is reported as 4.13 ± 0.42 h and the “total protein half-life in vivo” value [3] is reported as 4.07 h. For the same sequence, the “total protein half-life in vivo” value [4] was 3.78 h, the “total protein half-life in vivo” value [6] was 1.27 h and the “total protein half-life in vivo” value [7] was 3.95 ± 2.7 h. For the same sequence, the “total protein half-life in vivo” value [8] was 8.85 h, the “total protein half-life in vivo” value [10] was 2.71 h and the “total protein half-life in vivo” value [11] was 2.84 ± 1.1 h.
